Assay results: the nanobody polyreactivity screen of Harvey et al. (2022)

Assay: yeast display, Sf9 membrane polyspecificity reagent, FACS + sequencing; frameworks hold sequencing errors
Outline: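 Sorting gates, low and high (top ~1%), were placed on anti-HA fluorescence to track expression and on streptavidin fluorescence to track reagent binding. A clone's polyreactivity label is taken from the gate it came out of. The reagent was 10% biotinylated, detergent-solubilized Sf9 membrane, applied for 1 hour at 4 °C to galactose-induced yeast display cells.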

Row | Sequence | polyreactivity (PSR sort gate)
1 | QVQLVESGGGLVQAGGSLRLSCAASGFNFSSYAMGWSRQAPGKERELVAAISGSGGTTYYADSVKGRFTISRDNAKNTVYLQMNSQKPEDTAVYYCATRLGLVITKYGYDYWGQGTQVTVSS | high polyreactivity
2 | QVQLVESGGGLVQAGGSLRLSCAASGFNFYSYAMGWYKQAPGKERELVAVTYADSVKGRFTISRDNAQNTVYLQMNSLKPEDTAVYYCAALEYLDGPLSDYWGQGTQVTVSS | low polyreactivity
3 | QVQLVESGGGLVQAGGSLRLSCAASGFNIGDYAMGWYRQAPGKERELVAAITISGGGTYYADSVKGRFTISRDNAKNTVYLQMNSLKPEDTAVYYCAAGYYDLNLDTDFGFDYWGQGTQVTVSS | low polyreactivity
4 | QVQLVESGGGLVQAGGSLRLSCAASGFNSDWYAMGWSRQAPGKERELVATIDWIGGSTYADSVKGRFTISRDNAKNTVFLQMNSLKPEDTAVYYCAADSYFIAWYGAHYAYDYWGQGTQVTVSS | low polyreactivity
5 | QVQLVESGGGLVQAGGSLRLSCAASGFSFHRYAMGWYRQAPGKERELVAGITRRSGSTFYADSVKGRFTISRDNAKNTVYLQMNRLKPEDSAVYYCAATVPGLHWIYDYWGQGTQVTVSS | high polyreactivity
6 | QVQLVESGGGLVQAGGSLRLSCAASGFTCAWYTMGWYREAPGKERELVAAISLNGGSTYYADSVKGRFTISRDNAKNTVYLQMNRLKPEDTAVYYCAKGYRWPYYPYDYWGQGTQVTVSS | low polyreactivity
7 | QVQLVESGGGLVQAGGSLRLSCAASGFTCKKYAMGWSRQAPGKERDLVASITWYGGSTSYADSVKGRFTISRDNANNTVYLQMNSLKPEDTAVYYCAAATFVYRLRYNRFDYWGQGTQVTVSS | high polyreactivity
8 | QVQLVESGGGLVQAGGSLRLSCAASGFTCSQNAMGWYRQAPGKERELVAAITGHGGSTYYADSVKGRFTISRDNAKNTVYLQMNSLKPEDTAVYYCAADVYAVHAPQSDYWTKYDYWGQGTQVTVSS | low polyreactivity
9 | QVQLVESGGGLVQAGGSLRLSCAASGFTFAAYAMGWYRQAPVKERELVAAITNGGSTKYADSVKGRFTISRDNAKNTVYVQMNSLKPEDTSVYYCNADGFDLNVTNVSALEYDSWGQGTQVTVSS | low polyreactivity
10 | QVQLVESGGGLVQAGGSLRLSCAASGFTFAFYTMGWSRPAPGKESELVAGITRSGTNTYYADSLTGRFTISRDNAKNTVYLLLNSLTPEDTAVYYCAAAIRPGMDYWGQGTQVTVSS | high polyreactivity
11 | QVQLVESGGGLVQAGGSLRLSCAASGFTFAGNAMGWYRPAPGKERELVAAISRRGGSTYYADSVKGRFTISRDNAKNTVYLQMNSLKPEDTAVYYCAAVYPYDYDYWGQGTQVTVSS | high polyreactivity
12 | QVQLVESGGGLVQAGGSLRLSCAASGFTFAGYAMGWSRQAPGKERELVAGIRSSGARTYYADSVKGRFTISRDNAKNTVYLQMNSLKPEDTAVDYCAKTDGFYRGYGYWGQGTQVTVSS | low polyreactivity
13 | QVQLVESGGGLVQAGGSLRLSCAASGFTFAKYAMGWYRQAPGKERELVAAISSSGGRTYYADSVKGRFTISRDNAKNTVYLQMNSLKPEDTAVYYCAAAIRYRNYVYLYDYWGQGTQVTVSS | high polyreactivity
14 | QVQLVESGGGLVQAGGSLRLSCAASGFTFALYAMGWYRQAPGKERELVASISWSGGSTYYADSVKGRFTISRDNAKNTVYLQMNSLKPEDTAVYYCAACGRYYGGAYTRYYYWGQGTQVTVSS | high polyreactivity
15 | QVQLVESGGGLVQAGGSLRLSCAASGFTFANNAMGWYRQAPGKERELVAAISRSGGSTYYADSVKGRFTISRDNAKNTVYLQMNSLKPEDTAVYYCAKAVFYGPCERNYGLDYWGQGTQVTVSS | high polyreactivity
16 | QVQLVESGGGLVQAGGSLRLSCAASGFTFANYAMGWYRQAPGKERELVAAITRTAGSTYYADSVKGRFTISRDNAKNTVYLQMNSLKPEDTAVYYCAVEGIYRWYDYSWYYTSTYDYWGQGTQVTVSS | low polyreactivity
17 | QVQLVESGGGLVQAGGSLRLSCAASGFTFAPYVMGWYRQAPGKETELVAAIPTRGGSTYYADSVKGRFTISRDNAKNTVYLQMNSLKPEDTAVYYFAAQRRYDTADHGYWGQGTQVTVSS | high polyreactivity
18 | QVQLVESGGGLVQAGGSLRLSCAASGFTFASNAMGWYRQAPGKERELVAGISRTGTTTYYADSVKGRFTISRDNAKNTVYLQMNSLKPEDTAVYYCNKAFSHQIYATGMGYWGQGTQVTVSS | high polyreactivity
19 | QVQLVESGGGLVQAGGSLRLSCAASGFTFASNCMGWYRQAPGKERELVAVIDWSDDSTYYADSVKGRFTISRDNAKNTVYLQMNSLKPEDTAVYYCKADVWWGGYDYWGQGTQVNVSS | low polyreactivity
20 | QVQLVESGGGLVQAGGSLRLSCAASGFTFAVYAMGWYRQAPGKERELVAAINRGGGSTYADSVKGRFTISRDTAKNTVYLQMNSLKPEDTAVYYCAARVYGTRKINYSWGQGTQVTVSS | high polyreactivity
21 | QVQLVESGGGLVQAGGSLRLSCAASGFTFAVYTMGRYIQGPGKERELVAAITASGGSTHYADSVKGRFTISRDNAKNTVYIQMNSLKPEDTAVYYCAARPRLYQYYYWGQGTQVTVSS | high polyreactivity
22 | QVQLVESGGGLVQAGGSLRLSCAASGFTFAVYTMGWYRQAPGKERELVAAITASGGSMHYADSVKGRFTISRDNVKNTVYLQMNSLKPEDTAVYYCAARPRLYQYYYWGQGTQVTVSS | high polyreactivity

Row | Sequence | polyreactivity (PSR sort gate)
23 | QVQLVESGGGLVQAGGSLRLSCAASGFTFAYNAMGWYRQAPGKERELVAAISRSGARTYYADSVKGRFTISRDNAKNTVYLQMNSLKPEDTAVYYCNARDYTLYGYWGQGTQVTVSS | high polyreactivity
24 | QVQLVESGGGLVQAGGSLRLSCAASGFTFAYNAMGWYRQAPGKERELVATISWSGGSTYYADSVKGRFTISRDNAKNTVYLQMNSLKPEDTAVYYCATTIFYTYYGLYDYWGQGTQVTVSS | high polyreactivity
25 | QVQLVESGGGLVQAGGSLRLSCAASGFTFAYYAMGWYRQAPGKEREFVAVITWSGGDTYYADSVKGRFTISRDNAKNTVYLQMNSLKPEDTAVSYCAATYWGTRRIYAYGYWGQGTQVTVSS | high polyreactivity
26 | QVQLVESGGGLVQAGGSLRLSCAASGFTFAYYAMGWYRQAPGKERELVAAISSRGGSTYYADSVKGRFTISRDNAKNTVYLQMNSLKPEDTAVYYCAAEFGLWPYEYGYWGQGTQVTVSS | high polyreactivity
27 | QVQLVESGGGLVQAGGSLRLSCAASGFTFAYYDMGWYRQAPGKERELVAAISQSGGSTYYADSVKGRFTISRDNAKNTVYLQMKSLKPEDTAVYYCNAYAYTQSYEYDYWGQGTQVTVSS | high polyreactivity
28 | QVQLVESGGGLVQAGGSLRLSCAASGFTFAYYTMGWYRQAPGKERELVAAINWSGGSTYYADSVKGRFTISRDNAKNTVYLQMNSLKPEDTAVYYCAAKSYWWATYEYWGQGTQVTVSS | high polyreactivity
29 | QVQLVESGGGLVQAGGSLRLSCAASGFTFAYYTMGWYRQAPGKERELVVVINRSGSTNYADSVKGRFTISRDNAKNTVYLQMNSLKPEDTAVYYCATGVALRYGYWGQGTQVTVSS | low polyreactivity
30 | QVQLVESGGGLVQAGGSLRLSCAASGFTFDAYTMGWYSQAPGKERELVAAITWSGGRTYYADSVKGRCTISRDNAKTTVYLQLNSLKPEDTALYNCAADSPTSLYEYWGQGTQVTVSS | high polyreactivity
31 | QVQLVESGGGLVQAGGSLRLSCAASGFTFDENAMGWYRQAPGINYSGASTYYADSVKGRFTISRDNAKNTVYLQMNSLKPDDTAVYYCAAEVVAQMNYWGQGTQVTVSS | low polyreactivity
32 | QVQLVESGGGLVQAGGSLRLSCAASGFTFDGYGMGWYRQAPGKERELVAVITSGGSTKYADSVKGRFTISRDNAKNTVYLQMNSLNPEDTAVYYCNVVGGRYLYSAYDYWGQGTQVTVSS | low polyreactivity
33 | QVQLVESGGGLVQAGGSLRLSCAASGFTFDHNAMGWYRQAPGKERELVARITGTGDSTYYADSVKGRFTISRDNAKKTVYLQMNSLNPEDSADYYCNADRRYDFYDGYGYWGQGTQVTVSS | low polyreactivity
34 | QVQLVESGGGLVQAGGSLRLSCAASGFTFDIYGMGWYRQAPGKERELVASITSRSARTNYADSVKGRFRISRDNAMNTVYLQMNSLKPEDSAVYYCAADPYTGYTYYWGQVTQVTVSS | high polyreactivity
35 | QVQLVESGGGLVQAGGSLRLSCAASGFTFDKYAMGWYRQAPGKESELVAAISRGGGTKYADSVKGRFTISRDNAKNTVYLQMNSLKPEDTAVYYCVAKFRPDLSRGAYEYWGQGTQVTVSS | high polyreactivity
36 | QVQLVESGGGLVQAGGSLRLSCAASGFTFDLYARGWYRQAPGKERELVAAISSSCGSTYYADSVKGRFTISRDNAKNTVYLQMNSLKPEDTAVYDCARRYLYSSRLVTKYGYGMDYWGQGTQVTVSS | high polyreactivity
37 | QVQLVESGGGLVQAGGSLRLSCAASGFTFDPYAMGWYREAPGKERELVAAISFSGGSTSYADSVKGRFTISRDNAKNSVYFQMNSLKPEDTAVYYCAAYSWLYEGYEYWGQGTQVTVSS | high polyreactivity
38 | QVQLVESGGGLVQAGGSLRLSCAASGFTFDPYAMGWYRQAPGKERELVAAISFSGGSTSYADSVKGRFTISRDNAKNTVYLQMNSLKPEDTAVYYCAAYSWLYEGYEYWGLGTQVTVSS | high polyreactivity
39 | QVQLVESGGGLVQAGGSLRLSCAASGFTFDPYAMGWYRQAPGKERELVAAISISGGRTYYADSVKGRFTISRDNAKNTVYLQMNSLKPEDTAVYYCAVAQSHYFGGYGYWGQGTQVTVSS | low polyreactivity
40 | QVQLVESGGGLVQAGGSLRLSCAASGFTFDRYAMGWYRQAPGKERELVAAISRSGASTYYADSVKGRFTISRDNAKNTVYLQMNSLKPEDTAVDDCAAKQRTKGDYWGQGTQVTVSS | high polyreactivity
41 | QVQLVESGGGLVQAGGSLRLSCAASGFTFDRYAMGWYRQAPGKERELVAAISVSGGRTYYADSVKGRFTISRDNAKNTVYLQMNSLKPEDTAVYYCAARDHSRSRFGYDYLGQGTQVTVSS | high polyreactivity
42 | QVQLVESGGGLVQAGGSLRLSCAASGFTFDRYAMGWYRQAPGKERELVAAITSRGGRTYYADSVKGRFTISRDNAKNTVYLQMNSLKPEDTAVYYCNAVYSQSGYFYRFDYWGQVTQVTVSS | high polyreactivity
43 | QVQLVESGGGLVQAGGSLRLSCAASGFTFDSNAMGWYRQAPGKERELVAAISKRGGSTYYADSVKGRFTISRDNAKNTVYLQMNRLKPEDTAVYYCAADNYNSGGTRHMYYWGQGSQVTVSS | high polyreactivity
